Here are results for one protein from article PMC9029710, “Improvement of Biocatalytic Properties and Cytotoxic Activity of L-Asparaginase from Rhodospirillum rubrum by Conjugation with Chitosan-Based Cationic Polyelectrolytes” (Pharmaceuticals, 2022).

Substrate in the data set: NC(=O)C[C@H](N)C(=O)O
The data set is described as follows: circular dichroism hydrolysis assay. It counts as biochemical, Rhodospirillum rubrum. As to conditions: native RrA, pH 7.5, 5 mM citrate-phosphate-borate buffer, 37 °C. From the text: circular dichroism hydrolysis assay on RrA (L-asparaginase from Rhodospirillum rubrum)
Background: Circular dichroism is the unequal absorption of left and right circularly polarised light.

B1: RrA (L-asparaginase from Rhodospirillum rubrum) (Rhodospirillum rubrum ATCC 11170) (protein)
chain: MAVSPSPLRIFTAGGTIDKDYRLEENGLVVGDPFVAEVLKTARLAGAVSIVALSRKDSLDFTEADREAIGRAVGQAVEDHILLTHGTDTMVETARYLGGLPELAGKTVVLSGAMVPGRVGGSDAAFNIGFACAAALMLAPGVYIAMHGKVFDPAKTRKNRGLGRFEPIDDQE
notes: 172 aa, 18 kDa, tetramer; native unconjugated enzyme
One may read the Km as the substrate concentration at which the rate is half of its maximum. The term Vmax denotes the top rate of the reaction or transport when substrate is in excess. B1: the Michaelis constant (Km) came out at 4.8 ± 1.6 mM, the Vmax amounted to 59 µmol/min/mg and the Vmax/Km was determined as 12300 µL/min/mg.
